Data as given in the supplement of paper PMC9170038.

Each sequence was assayed on K4 kissing-loop RNA reporter (assay: apparent KD of K4 kissing-loop reporter; higher = weaker reporter binding). Conditions: Eterna round: R107; input ligand: none.
Experimental: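 RNA-MaP round R107: designed RNA switches with theophylline, tryptophan, arginine or FMN aptamers are transcribed on-chip within common flanks. They are titrated with a labelled K4 kissing-loop RNA reporter in RNA-MaP buffer (100 mM Tris pH 7.5, 80 mM KCl, 4 mM MgCl2), without ligand or with the indicated ligand. Median apparent KD per design.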
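Further: bound reporter read as fluorescence of individual clusters on recovered sequencing chips by microscopy, with normalized cluster intensities fitted with a binding model.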

| Sequence | apparent KD of K4 kissing-loop reporter |
| --- | --- |
| AGGUACAAAAGUACCGCUAGAUCCACGGAAGGAGCGGCCGAAAGGCCAGGUAGGUCGCCGGGCAGUGAUGUUGCCGGAUCUAGCA [Omei KL Arginine A SS A v2] | 0.2 µM |
| AAGUGAUGUUGUAGUGAUGUUGUGAUGUUGCAGGAUAUAUAGUGAUGUAGAAGGGUAUGUGCAGUUUUCAUAUUUGAGUGUUGAU [mkkhmullin] | 0.0671 µM |
| ACACAGAGUUGCCGAGUGAUGUUCGGCUUACGAGGACCGGUACGGCCGCCACUCGUUACUCUGUGUUUUGGACACCAAGGCGUCG [Tionzaanon] | 0.543 µM |
| UGGAUAUAGUGAUGUUAUAUAGAGAGUGAUACCAGUUUAGAGAAGAACCCUUGGCAGCAUAGAAGAGUAUCAUUGGAGAAGAAUG [ExTheophyl.Aq] | 0.242 µM |
| UAGUCCUAGUGAUGGUUAUCACGUGGUGGGCGAGGACCGGUACGGCCGCCACUCGACUUUGCAGUGAUGUUGCAAUCCGGACAAU [Exclusion - Tryptophan A (Freestyle 17)] | 0.24 µM |
| GAAGUACAGGCGGCCGCCACUAGUGAUGUUAGUGAUAAAAGAUAAAGUAUAUAUCGGCAUGUAGAUAGGACCGGGCCUGAUGGAG [uiiumullin] | 0.186 µM |
| AGUGCCUGCCUUAGCCUUCCCAUCAACUUCCGAGGACCGGUACGGCCGCCACUCGGCCAUCGGGCUAGUGAUGUUACCUGGUGGA [theeternabot_sameState_KL_Trp_A_50] | 0.327 µM |
| GUUACGCAUGGAAGGAGCGCUCUCCGGUUUAUUAACACAGUGAUGUUGUGAUUUUACCGAAAGCAGGUAGGUCGCCAUGUGUAAC [Ex Arginine B K4 12] | 0.416 µM |
| UGAUACCAGACGGCCGCCACUCCUGCAAGUCAAAGACUUGCUAAGGAAAUCGUCCAGUGAUGUUGGAGGACCGGGUCUGGUAUCU [TrypBX 17 #SwitchBubble #Palindromic #StaticStem] | 0.83 µM |
| AAUUCAGUGAUGUUGGAAGGCAAGCGGGAUACCAGCGGAGAAUAACGCCCUUGGCAGCCCAUAUAUCCCAAAUAGAUAAUAGUUC [Same State - Theophylline A (Freestyle 4)] | 0.279 µM |
| UAUACGCUAGUGAUGUUGGCGAAGACUGAAGGAGCGUGCGAGAGUACAGGUAGGUCGCAGUCAGACAGAUUGUACCUGUCUUAUG [Arg A SS t10] | 0.295 µM |
| CCAUCGCUAUUCGAUACCAGUCAUCACAUCUUUGGUGUGAUAAAGGAGUGAUGUUCCCAAGACCCUUGGCAGCGAAUAGUGAUGG [Theophylline B K4 11] | 0.27 µM |
| AGAUUCGACACGGCCGCCACUCGUGGUGGAUUACCUAGUGUCGAAGUUGAGUGAUGUUCAACUACGAGGACCGGGUGUUGAGUCU [KL-XTryp-B7 #analogue] | 0.215 µM |
| CCGAUGGGUACAGGAUAUGCCAGUGAUGUUGGUUUAGAUGGACCCAUAAGGAGACACCAGACGGAGGCAGAAGGGUAGCAAGGGA [Isonanti] | 0.101 µM |
| AACUCUCAGGCACGCGAGUGAUGUUCGCGCCGAGGACCGGUACGGCCGCCACUCGGGCCUGAGAGAGGUUAUCAAAGAUAGCCAA [whbob_SS_tryp_A] | 0.137 µM |
| UUAGCUCUAUAGAGCAAGAGGUAUACUGAUACCAGAGGCUAUAGCCUCCCUUGGCAGCGGAUCGAGUGAUGUUCGUAACCUCAUU [AK4.5 SS Theophylline A] | 0.812 µM |
| AACUUAAUUUAUAAGCAGUGAUGUUGCUUACGAGGACCGGUACGGCCGCCACUCGAUCGCAUUUAUGUCUUCAAUUAAUUCAUUA [JR_ExcTryptoA_Sub016] | 0.197 µM |
| CGUCACAAACCUAGUCAAGUGAUGUUUGGCCGAGGACCGGUACGGCCGCCACUCGCUCCUGUCACCCAUUCGUGUGUCGCGGACU [theeternabot_exclusion_KL_Trp_A_5] | 0.316 µM |
| ACGUCCCGUUUACUCGUGGGUUAGGUCGAUACCAGUAUUCAAACUUACCCUUGGCAGCGACAUGAGUGAUGUUCAUGUGCGAAGA [KL-XTheo-A5 #analogue] | 0.108 µM |
| AGAAAGAAGGCGGCCGCCACUCUGAUGGGCGAAAGCCCAUUUUUUUAGCAGUGAUGUUGCUUGUUGAGGACCGGGCCAAAGAAAU [2nd] | 0.155 µM |
| UGUCAUUGGUCGGCCGCCACUUCAUAGAGAGUGAUGUUCUUAAAGACGGAUCGAAAGAUCUGUCGAAGGACCGGGACCGAUGACU [FiskerMod 9 - Jieux - Same State - Tryptophan B] | 1.4 µM |
| GGAUAGGAUAGAGGAUAUGGUAGUGAUGUUACCAAACUGGUUAAACAUGUCAGAAAACUGGCAUGACCAGAAGGUUGUCCUAUCG [FmnBX 27 U9+U75] | 0.0705 µM |

Same assay, conditions: Eterna round: R107; input ligand: theophylline 20 uM

| Sequence | apparent KD of K4 kissing-loop reporter |
| --- | --- |
| GCAUCCAUGGCAGGAUAUAGGUUCGUGGAGUGAUGUUCCAUAACCCGAGUGAUGUUCGUUAUCCACCUAGAAGGGCCAUGGAUGC [whbob_Ex_FMNB__2th211] | 0.215 µM |
| GGUAGCAUGGCGGCCGCCACUCUUCAUUAGUGAUGUUAAUGCCGAGUGGGCAAACUCCGCCAGGAGAGGACCGGGCCAUGCUACC | 0.0627 µM |
| GUAUAAGUGGGCGAUACCAGCUGUCGGUAGUGAUGUUAUUCAGCAGUCAGGAAGUUCGCUAGCCCUUGGCAGCGCCAGUGGUGAC [theeternabot_exclusion_KL_Theo_B_19] | 0.351 µM |
| AGGAAGUGAGAAGGAUAUUACACUCGGAAGCGCUAGUGAUGUUAGCAUAGAAACAAGGGAACAUGGUAAGAAGGUCUUACAAUGA [theeternabot_sameState_KL_FMN_B_2] | 0.0695 µM |
| GCCGUAGAUGGAAGGAGCGAGUCCAAACCAUAUUGCUGAAAAUUCGAGUGAUGUUCGUAAGCUCAGGUAGGUCGCCAUCUACGGC | 0.161 µM |
| GAUUCAGUGAUGUUGGAAGGCGAGCGGGAUACCAGCCGAGACUCAGGCCCUUGGCAGCCCACAUAUCCCAGGUAGAUAGUCGAUC [Same State - Theophylline A (Freestyle 9)] | 0.165 µM |
| GGAUUGCCAGUGAUGUUGGCAUAAUCUGAAGGAGCGCGUGAAAACGCAGGUAGGUCGCAGAACCUUGCCAACUGAUCGAAAGAUC [Ex Arginine A K4 30] | 0.185 µM |
| GAACCAGAGGUUGCUGCGGGUUCCAGAGAUACCAGCCGUAUUGAAGGCCCUUGGCAGCUCGAGUGAUGUUCGAGCCGCCUCUGGC [Antius] | 0.103 µM |
| AAGAGGUAGGCGGCCGCCACUAGUUGUGAACACAUACAAGCCAGUGAUGUUGGUAUGGUGGGCGGUAGGACCGGGCCUACCUGAA [Exclusion - Tryptophan B (Freestyle 17)] | 0.25 µM |
| GUGUGGAUCCGAAGGAGCGUCCGCAAUCCAGUGAUGUUGGGUGUUGGUUUUAGUAGACGAGGACAGGUAGGUCGCGGAUUUACAA [Same State Arginie B GF 23] | 0.11 µM |
| UUACGAGUGAUGUUCGAAUAAAUCCAUUCAGAGGAUAUAGUAUUAACUAGAAGGCUGAAACCAACUUCGAGUCAUGUUCGAGGAU [Same State FMN A GF 2] | 0.514 µM |
| GGGCCUCUGGCUGAUACCAGUGAUAAAGGGUAAGAGACAGGGAGUGAUGUUCCCUUUAGCCACCCUUGGCAGCAGUUUAAGUUUG [Exclusion Theophylline B GF 18] | 0.0866 µM |
| AGUGAUGUGGGAAGGAGCGGUACAUGACUUCAGUGAUGUUGAAGUGAUGAUUUAGUGAUGUGCCAGGUAGGUCGCCUAGAUGUUA [KL-XARG-B7] | 0.0418 µM |
| AGUGAAGUUAGUGAUGUGUGAGUUUGGGAAGGAGCGCCGAGAACGGCAGGUAGGUCGCCCAGUGAUGUUGGUGUAAAGAUGAGAG [whbob_Ex_Arginine_A_2t121] | 0.232 µM |
| AAUUGAGUGACGGCCGCCACUAGAGUGAUUUUUUUGUUUGAGUGAUGUUUUGAUGUUUGAUGUUGUAGGACCGGGUUGAGUGAUG [vvrvmullin] | 0.428 µM |
| AUUAUAAAGGCGGCCGCCACUAGUGAUGUUAGUGACUUAUGUAUUAUCAUAAGAAUAAAAUAAAAUAGGACCGGGCCAAAAUAUU [AstrosExTryB#3] | 0.448 µM |

| Sequence | apparent KD of K4 kissing-loop reporter |
| --- | --- |
| CCUCACGUAGGACUAGUGAUGUUAGACUACCGAGGACCGGUACGGCCGCCACUCGUCGUACAAGAUAACCUUCCGCCAGUAUACG | 0.0884 µM |
| UAAUAUAACCGAAGGAGCGCGUGGGCGCAGUGAUGUUGCGCCCGACAUCACUUCAACUAAACGCAGGUAGGUCGCGGUAAUAAUA [Arginine B (Excl) V1] | 0.0842 µM |
| GUGAAUGGCUGAGCAGCCGUGGUACGAGAUACCAGUGAUUUCGAUCACCCUUGGCAGCUCGGCGUGAGUGAUGUUCACGCUACAC [Theo A SS t12a] | 0.33 µM |
| AUUCAUGAGUGAUGUUCAUCGGCAGGAGAUACCAGCGAGUUAACCCGCCCUUGGCAGCUCAAGUAUAGGGACUCUGGCAUCGCCU [theeternabot_exclusion_KL_Theo_A_18] | 0.405 µM |
| CAUGGAGUGAUGCUCCAUGAUCGGGCUUGGCAGGAUAUGGGAUCUUCCAGAAGGGCCGAUCCCAGCGAGUGAUGUUCGCUGGUCU [Exclusion FMN A GF 27] | 0.116 µM |
| AGGUACAAAAGUACCGCUAGAUCCACGGAAGGAGCGGCCGAAAGGCCAGGUAGGUCGCCGGGCAGUGAUGUUGCCGGAUCUAGCA [Omei KL Arginine A SS A v2] | 0.185 µM |
| AAGUGAUGUUGUAGUGAUGUUGUGAUGUUGCAGGAUAUAUAGUGAUGUAGAAGGGUAUGUGCAGUUUUCAUAUUUGAGUGUUGAU [mkkhmullin] | 0.0565 µM |
| ACACAGAGUUGCCGAGUGAUGUUCGGCUUACGAGGACCGGUACGGCCGCCACUCGUUACUCUGUGUUUUGGACACCAAGGCGUCG [Tionzaanon] | 0.505 µM |
| UGGAUAUAGUGAUGUUAUAUAGAGAGUGAUACCAGUUUAGAGAAGAACCCUUGGCAGCAUAGAAGAGUAUCAUUGGAGAAGAAUG [ExTheophyl.Aq] | 0.181 µM |
| UAGUCCUAGUGAUGGUUAUCACGUGGUGGGCGAGGACCGGUACGGCCGCCACUCGACUUUGCAGUGAUGUUGCAAUCCGGACAAU [Exclusion - Tryptophan A (Freestyle 17)] | 0.224 µM |
| GAAGUACAGGCGGCCGCCACUAGUGAUGUUAGUGAUAAAAGAUAAAGUAUAUAUCGGCAUGUAGAUAGGACCGGGCCUGAUGGAG [uiiumullin] | 0.203 µM |
| AGUGCCUGCCUUAGCCUUCCCAUCAACUUCCGAGGACCGGUACGGCCGCCACUCGGCCAUCGGGCUAGUGAUGUUACCUGGUGGA [theeternabot_sameState_KL_Trp_A_50] | 0.32 µM |
| GUUACGCAUGGAAGGAGCGCUCUCCGGUUUAUUAACACAGUGAUGUUGUGAUUUUACCGAAAGCAGGUAGGUCGCCAUGUGUAAC [Ex Arginine B K4 12] | 0.381 µM |
| UGAUACCAGACGGCCGCCACUCCUGCAAGUCAAAGACUUGCUAAGGAAAUCGUCCAGUGAUGUUGGAGGACCGGGUCUGGUAUCU [TrypBX 17 #SwitchBubble #Palindromic #StaticStem] | 0.717 µM |
| AAUUCAGUGAUGUUGGAAGGCAAGCGGGAUACCAGCGGAGAAUAACGCCCUUGGCAGCCCAUAUAUCCCAAAUAGAUAAUAGUUC [Same State - Theophylline A (Freestyle 4)] | 0.327 µM |
| UAUACGCUAGUGAUGUUGGCGAAGACUGAAGGAGCGUGCGAGAGUACAGGUAGGUCGCAGUCAGACAGAUUGUACCUGUCUUAUG [Arg A SS t10] | 0.349 µM |
